In paper PMC4737498, “An Anti-proteome Nanobody Library Approach Yields a Specific Immunoassay for Trypanosoma congolense Diagnosis Targeting Glycosomal Aldolase” (PLoS Neglected Tropical Diseases, 2016):

Assays:
Conditions in all cases: one partner purified
[1] = target: T1, recombinant T. congolense glycosomal aldolase (Trypanosoma congolense IL3000, UniProt G0UWE7); assay: ELISA; homologous sandwich (Nb474H-Nb474B), capture step: crude soluble proteins of E. coli expressing recombinant aldolase (10 μg/well) on coated Nb474H
T1 construct: His6-tag with a proximal tobacco etch virus cleavage site; Construct synthesised by GenScript; also called TcoALD; recombinant TcoALD; source: E. coli BL21(DE3), pET-21b(+), in crude lysate (18 h post-induction)

[2] = target: T2, native T. congolense glycosomal fructose-1,6-bisphosphate aldolase (Trypanosoma congolense (TC13 soluble …, UniProt G0UWE7)); assay: ELISA; homologous sandwich Nb474-ELISA, capture step: Nb474H coated on Nunc plate (0.02 μg/ml in PBS, overnight 4°C), T. congolense soluble proteome, infected sera or secretome added 1 h at 22°C
T2 construct: glycosomal fructose-1,6-bisphosphate aldolase of Trypanosoma congolense, UniProtKB G0UWE7; band at about 40 kDa identified by mass spectrometry; Samples came from different strains (TC13, IL3000 and others); also called TcoALD; native TcoALD; source: endogenous, T. congolense soluble proteome (TC13), sera of T. congolense infected mice, T. congolense IL3000 secretome; in fixed T. congolense …

[3] = target: T1, recombinant T. congolense glycosomal …; assay: ELISA; homologous sandwich (Nb474H-Nb474B), detection step: Nb474B on recombinant aldolase captured from crude E. coli lysate by coated Nb474H
[4] = target: T2, native T. congolense glycosomal …; assay: ELISA; homologous sandwich Nb474-ELISA, detection step: Nb474B (0.02 μg/ml, 1 h at 22°C) on antigen captured from T. congolense samples by coated Nb474H; strep-HRP and TMB

Row | Binder | binding result [1] | binding result [2] | binding result [3] | binding result [4]
1 | Nb474H (His6-tagged Nanobody 474) (VHH, from an alpaca immunised with T. congolense TC13 soluble proteome; also called capturing Nb; His6-tag Nb; source: E. coli WK6 (pHEN6c), periplasmic extract, purified (His-Select Nickel, size exclusion chromatography)) VHH: QVQLQESGGGLVQPGGSLRLSCAASETALTYYAIGWFRQAPGKEREGVSCISRINSGSGARTDYADSVKGRFTISRDDAKNTVTLQMNSLEPEDTARYYCALDTTDRYDSANGRYYCTISSDTYDYWGQGTQVTVSS | binds | binds |  | 
2 | Nb474B (biotinylated Nanobody 474) (VHH, same Nb as m1; also called detecting Nb; detection Nb) VHH: QVQLQESGGGLVQPGGSLRLSCAASETALTYYAIGWFRQAPGKEREGVSCISRINSGSGARTDYADSVKGRFTISRDDAKNTVTLQMNSLEPEDTARYYCALDTTDRYDSANGRYYCTISSDTYDYWGQGTQVTVSS |  |  | binds | binds
